This is an account of results in US20220213201A1 (PHARMABCINE, published 2022).

Test [1] deals with T1, mouse Tie2-his (Sino Biological, 51087-M08H) (mouse, UniProt Q02858 23-743).
T1 construct: Bought protein; also called mTIE2-his; mTie2-his; not shown: his tag
As to the kind of experiment: ELISA, scFv phage on mouse TIE2 antigen, HRP anti-M13 detection. (In general: An ELISA detects its analyte on a solid surface through an enzyme-linked reagent.)

The target in test [2] is T2, human TIE2-his (Sino Biological, 10700-H08H) (human, UniProt Q02763 23-745).
T2 construct: Bought protein; also called hTIE2-his; hTIE2; not shown: his tag
Put plainly: ELISA, scFv phage on coated hTIE2-his, HRP anti-M13 detection.

For test [3], the target named is T1, mouse Tie2-his (Sino Biological, …). As to the kind of experiment: Octet (BLI), antibody fixed on the biosensor, mTie2-His in solution. Here is the method: (§1) The anti-TIE2 antibody was fixed at the biosensor and tested according to the manufacturer's manual. The binding kinetics at each concentration of human TIE2 and mouse Tie2 were measured to calculate the binding rate constant (kₒₙ), dissociation rate constant (koff), and binding constant (KD) (Table 4).

Test [4] has as its target T2, human TIE2-his (Sino Biological, …). As to the kind of experiment: Octet (BLI), antibody fixed on the biosensor, hTIE2-his in solution. Here is the method:
as §1
In general terms: In BLI a coated tip is dipped into the sample, and binding shifts an interference pattern.

Test [5] deals with T3, human TIE2 overexpressed on CHO-K1 cells (human, UniProt Q02763 23-1124).
T3 construct: whole, on cells; also called hTIE2/CHO-K1; hTIE2 CHO-K1
Put plainly: flow cytometry on hTIE2/CHO-K1 cells, 2 µg/mL clone, PE anti-human IgG-Fc secondary. Here is the method:
(§2) In order to determine the binding to cell-expressing TIE2, the binding to the self-established human/mouse TIE2 overexpressing CHO-K1 cell lines (hTIE2/CHO-K1, mTIE2/CHO-K1) was measured using flow cytometry. Each cell line was maintained and cultured, hTIE2 CHO-K1 was washed with PBS, 5 mM EDTA was added thereto to obtain a cell suspension, and each cell was recovered through centrifugation. A cell suspension of 5×10⁶ cells/mL was prepared using FACS-dedicated buffer (PBS containing 2% FBS, 0.05% sodium azide), and 100 μL of the cell suspension was dispensed into each tube. 100 μL of 2 μg/mL clones was added to each test tube and allowed to stand at 4° C. for 30 minutes to induce cell binding. The cells were washed with 2 mL of FACS buffer, 100 μL of a secondary antibody dilution (1/500, PE-conjugated anti-human IgG-Fc polyclonal antibody fragment, *A80-248PE, Bethyl Laboratories Inc. US) was added thereto, and the resulting mixture was allowed to stand at 4° C. for 20 minutes to perform fluorescent labeling. The cells were washed with 2 mL of FACS buffer and then suspended in 200 μL of FACS buffer. […]
(In general: A flow cytometer gives signals particle by particle.)

For test [6], the target named is T1, mouse Tie2-his (Sino Biological, …). Put plainly: ELISA, purified IgG on coated mTIE2-his (1 µg/mL), HRP anti-human detection. Here is the method:
(§3) Whether or not the binding of TIE2 to the ScFv phage clone was maintained in IgG was determined through ELISA. 1 μg/ml of Ag (hTIE2-his: Sino Biological, 10700-H08H; mTIE2-his: Sino Biological, 51087-M08H) was plated at 100 μl/well onto a 96-well plate and incubated at 4° C. overnight. The next day, the cells grown the day before were centrifuged at 3,000 rpm for 10 minutes and stored at 4° C. The plated Ag was washed 3 times with 0.1% TBST and 200 μl of 2% BSA blocking buffer was added thereto, followed by incubation at 25° C. for 2 hours. After blocking was completed, the resulting product was washed 3 times with 0.1% TBST. […] After phage binding, the resulting product was washed 3 times with 0.1% TBST and 100 μl of HRP-conjugated goat anti-human Ab (1:3000, Sino, 11973-MM05) was added thereto, followed by incubation at 25° C. for 1 hour. After reaction, the resulting product was washed 3 times with 0.1% TBST, 100 μl of TMB (BD TMB substrate reagent set * 555214) was added thereto, color was developed for 3 to 5 minutes, 50 μl of a stop solution was added thereto, and then an assay was performed using an ELISA reader.

For test [7], the target named is T2, human TIE2-his (Sino Biological, …). Put plainly: ELISA, purified IgG on coated hTIE2-his (1 µg/mL), HRP anti-human detection. Here is the method: as §3
Test [8] deals with T4, mouse TIE2 overexpressed on CHO-K1 cells (mouse, UniProt Q02858 23-1122).
T4 construct: whole, on cells; also called mTIE2/CHO-K1
Put plainly: flow cytometry on mTIE2/CHO-K1 cells, PE anti-human IgG-Fc secondary. Here is the method:
as §2

A value given as a limit tells only on which side of the number the result lay.

T2 sequence (Q02763 23-745 limits assumed): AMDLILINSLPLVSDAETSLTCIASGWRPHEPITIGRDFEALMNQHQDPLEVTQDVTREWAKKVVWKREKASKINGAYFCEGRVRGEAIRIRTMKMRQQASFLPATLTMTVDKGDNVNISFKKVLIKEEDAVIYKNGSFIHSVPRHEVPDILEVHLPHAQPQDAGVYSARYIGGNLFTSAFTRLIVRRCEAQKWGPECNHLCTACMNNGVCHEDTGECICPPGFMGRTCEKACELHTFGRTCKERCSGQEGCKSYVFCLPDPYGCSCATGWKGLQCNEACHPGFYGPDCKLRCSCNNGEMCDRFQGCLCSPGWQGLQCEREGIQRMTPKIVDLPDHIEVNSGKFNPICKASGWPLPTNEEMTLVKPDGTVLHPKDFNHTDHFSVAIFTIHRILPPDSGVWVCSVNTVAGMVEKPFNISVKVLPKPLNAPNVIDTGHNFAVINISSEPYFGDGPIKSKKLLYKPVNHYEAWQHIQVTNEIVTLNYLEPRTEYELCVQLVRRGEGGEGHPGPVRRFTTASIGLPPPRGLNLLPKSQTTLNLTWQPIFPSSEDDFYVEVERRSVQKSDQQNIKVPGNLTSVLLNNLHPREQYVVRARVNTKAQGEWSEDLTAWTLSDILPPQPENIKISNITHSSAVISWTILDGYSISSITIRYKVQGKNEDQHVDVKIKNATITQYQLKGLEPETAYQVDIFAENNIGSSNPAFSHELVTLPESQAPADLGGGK
T1 sequence (Q02858 23-743 limits assumed, stated change not applied): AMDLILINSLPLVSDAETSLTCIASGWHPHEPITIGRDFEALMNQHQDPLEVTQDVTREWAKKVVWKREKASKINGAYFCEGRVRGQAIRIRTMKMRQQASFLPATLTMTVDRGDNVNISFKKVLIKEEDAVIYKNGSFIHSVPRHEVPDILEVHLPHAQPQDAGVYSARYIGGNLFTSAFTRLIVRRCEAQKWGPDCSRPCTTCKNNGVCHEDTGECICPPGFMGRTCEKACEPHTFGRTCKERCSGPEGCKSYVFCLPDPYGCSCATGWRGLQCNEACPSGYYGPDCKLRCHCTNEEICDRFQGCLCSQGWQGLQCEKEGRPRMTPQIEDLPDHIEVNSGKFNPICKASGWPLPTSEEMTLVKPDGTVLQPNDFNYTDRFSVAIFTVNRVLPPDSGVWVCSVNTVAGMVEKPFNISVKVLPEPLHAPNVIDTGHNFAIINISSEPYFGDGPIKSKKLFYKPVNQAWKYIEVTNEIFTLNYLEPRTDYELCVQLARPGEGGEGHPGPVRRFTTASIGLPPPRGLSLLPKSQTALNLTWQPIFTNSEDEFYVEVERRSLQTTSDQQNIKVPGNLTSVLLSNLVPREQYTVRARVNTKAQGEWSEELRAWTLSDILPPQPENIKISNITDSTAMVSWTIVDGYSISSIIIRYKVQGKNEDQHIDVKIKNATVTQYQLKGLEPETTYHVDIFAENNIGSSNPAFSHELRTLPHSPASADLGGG
T4 sequence (Q02858 23-1122): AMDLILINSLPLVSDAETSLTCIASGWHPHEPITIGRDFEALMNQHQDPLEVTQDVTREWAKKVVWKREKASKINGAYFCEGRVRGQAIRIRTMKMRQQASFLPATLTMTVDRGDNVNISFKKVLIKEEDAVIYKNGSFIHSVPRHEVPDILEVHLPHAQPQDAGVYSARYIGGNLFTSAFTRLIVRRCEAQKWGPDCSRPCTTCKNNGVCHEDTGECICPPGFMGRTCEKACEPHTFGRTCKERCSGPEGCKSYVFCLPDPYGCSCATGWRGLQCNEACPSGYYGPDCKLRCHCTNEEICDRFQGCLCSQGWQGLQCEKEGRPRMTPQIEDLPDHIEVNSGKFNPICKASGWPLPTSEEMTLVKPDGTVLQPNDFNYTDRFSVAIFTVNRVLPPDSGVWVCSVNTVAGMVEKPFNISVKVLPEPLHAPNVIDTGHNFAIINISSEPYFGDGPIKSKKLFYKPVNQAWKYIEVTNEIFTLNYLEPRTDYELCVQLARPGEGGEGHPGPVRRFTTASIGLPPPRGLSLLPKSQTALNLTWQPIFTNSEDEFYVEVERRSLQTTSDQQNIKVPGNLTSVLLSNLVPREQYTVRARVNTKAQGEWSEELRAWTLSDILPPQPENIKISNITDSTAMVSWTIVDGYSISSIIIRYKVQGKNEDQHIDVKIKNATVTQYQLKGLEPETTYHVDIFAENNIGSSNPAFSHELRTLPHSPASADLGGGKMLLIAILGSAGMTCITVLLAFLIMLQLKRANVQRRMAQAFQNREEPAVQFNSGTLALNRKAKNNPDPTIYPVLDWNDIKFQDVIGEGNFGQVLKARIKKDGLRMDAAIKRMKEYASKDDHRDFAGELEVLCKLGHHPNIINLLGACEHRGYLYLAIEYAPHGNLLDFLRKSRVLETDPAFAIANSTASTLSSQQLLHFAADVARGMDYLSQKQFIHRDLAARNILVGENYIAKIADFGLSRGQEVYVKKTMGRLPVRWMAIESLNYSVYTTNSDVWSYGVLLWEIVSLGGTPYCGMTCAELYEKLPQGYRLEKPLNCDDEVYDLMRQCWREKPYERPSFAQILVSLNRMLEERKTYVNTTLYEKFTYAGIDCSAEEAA
T3 sequence (Q02763 23-1124): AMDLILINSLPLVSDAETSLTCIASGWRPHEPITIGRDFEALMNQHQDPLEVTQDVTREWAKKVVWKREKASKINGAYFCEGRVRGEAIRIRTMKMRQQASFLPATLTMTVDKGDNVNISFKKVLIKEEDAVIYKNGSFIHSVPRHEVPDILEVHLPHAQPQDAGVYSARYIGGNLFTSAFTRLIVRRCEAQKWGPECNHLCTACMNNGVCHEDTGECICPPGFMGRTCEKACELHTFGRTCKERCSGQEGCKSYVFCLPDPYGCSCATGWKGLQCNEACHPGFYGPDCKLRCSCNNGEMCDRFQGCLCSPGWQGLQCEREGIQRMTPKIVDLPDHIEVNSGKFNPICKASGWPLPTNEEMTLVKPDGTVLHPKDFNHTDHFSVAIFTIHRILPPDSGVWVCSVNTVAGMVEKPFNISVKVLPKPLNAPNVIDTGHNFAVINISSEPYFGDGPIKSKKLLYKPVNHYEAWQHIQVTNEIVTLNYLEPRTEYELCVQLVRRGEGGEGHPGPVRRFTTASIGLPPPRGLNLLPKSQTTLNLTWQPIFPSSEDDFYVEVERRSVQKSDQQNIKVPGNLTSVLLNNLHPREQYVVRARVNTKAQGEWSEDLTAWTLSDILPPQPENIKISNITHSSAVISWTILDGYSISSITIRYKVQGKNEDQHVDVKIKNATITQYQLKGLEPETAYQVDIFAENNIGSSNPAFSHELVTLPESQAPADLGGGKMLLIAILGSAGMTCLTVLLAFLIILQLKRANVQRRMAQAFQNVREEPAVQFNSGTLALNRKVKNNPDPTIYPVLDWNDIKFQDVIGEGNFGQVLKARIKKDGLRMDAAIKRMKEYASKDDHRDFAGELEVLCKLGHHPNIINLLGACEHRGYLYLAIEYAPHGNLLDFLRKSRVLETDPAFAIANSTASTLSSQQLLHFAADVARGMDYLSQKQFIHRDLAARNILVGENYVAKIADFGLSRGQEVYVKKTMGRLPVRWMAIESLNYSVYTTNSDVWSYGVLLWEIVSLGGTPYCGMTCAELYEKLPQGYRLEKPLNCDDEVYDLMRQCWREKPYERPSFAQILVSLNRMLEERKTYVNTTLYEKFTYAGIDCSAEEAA

B1: 2F2 monoclonal scFv phage (scFv)
chain: QVQLVESGGGLVQPGGSLRLSCAASGFTFSSYAMTWVRQAPGKGLEWVSRISGSGGSTNYADSVKGRFTISRDNSKNTLYLQMNSLRAEDTAVYYCARGGLHHGFDIWGQGTMVTVSSSYELTQPPSLSVAPGKTARITCDGDNIESKSVHWYQQKPGQAPVLVIYYDNDRPSGIPERFSGSNSGNTATLTISRVEAGDEADYYCQVWDTYTDQPVFGGGTKLTVLG
In the case of B1, the “Mouse ELISA” value in test [1] was found to be 0.1. Besides, the “Human ELISA” value in test [2] was 1.9.

B2: 3D6 monoclonal scFv phage (scFv)
chain: QVQLVESGGGLVQPGGSLRLSCIGSGFTFSRYNINWVRQAPGKGLEWVSSISSSGRFIHYAGSVKGRFTVSRDNTKNSVSLQMNSLRAEDTAVYYCARDSPTQGPYYYYGMDVWGQGTTITVSSSYELTQPPSESVAPGKTATITCGGNKIGSKSVHWYQQKPGQAPLMVIYYDSDRPSGIPERFSGSNSGNTATLTISRVEVGDEADYYCQVWDSSSDRPVFGGGTKLTVLG
In the case of B2, the “Mouse ELISA” value in test [1] turned out to be 0.1. For the same molecule, in test [2], the “Human ELISA” value came to 2.1.

B3: 1A9 monoclonal scFv phage (scFv)
chain: QMQLVQSEAEVKKPGASVKVSCKASGYTFNSYDIHWVRQAPGQGLEWMGVVNPPGGTGSTVYAQKFEDRLTLTTDMSTSTAYMELSSLRSEDTAVYYCARDYNRAPPTLDVWGQGTTITVSSNFMLTQPASVSGSPGQSITISCTGSSSDVGGYNYVSWYQQHPGKAPQLIIYDVTKRPSGVSNRFSGSKSGNSASLTISGLQAEDEADYYCSSYSSSTFYVFGTGTKVTVLG
For B3, in test [1], the “Mouse ELISA” value came to 0. Further, in test [2], the “Human ELISA” value was determined as 2.4.

B4: 4E2 monoclonal scFv phage (scFv)
chain: QVQLVQSGGGLIQPGGSLRLSCAASGFTFSDYAMHWVRQAPGKGLEWVALISFDGNNQYYADSVKGRFTISRDNSKNTIYLQMNSLRAEDTAVYYCTTDTMSGYDWEDAFDIWGQGTMITVSSDIQMTQSPSSLSASIGDRVTITCRASQSIGRWLAWYQQKPGKAPKLLIYAASSLQSGVPSRFSGSGSGTDFTLTISSLQPEDFATYYCQQSYSTPYTFGQGTKVEIKR
With B4, the “Mouse ELISA” value in test [1] was 0.4. Also, the “Human ELISA” value in test [2] was found to be 1.2.

B5: anti-TIE2 antibody 4E2 (IgG) (antibody, V domains shown)
VH: QVQLVQSGGGLIQPGGSLRLSCAASGFTFSDYAMHWVRQAPGKGLEWVALISFDGNNQYYADSVKGRFTISRDNSKNTIYLQMNSLRAEDTAVYYCTTDTMSGYDWEDAFDIWGQGTMITVSS
VL: DIQMTQSPSSLSASIGDRVTITCRASQSIGRWLAWYQQKPGKAPKLLIYAASSLQSGVPSRFSGSGSGTDFTLTISSLQPEDFATYYCQQSYSTPYTFGQGTKVEIKR
notes: also called 4E2 clone
In the case of B5, in test [3], the Kd (as a rule, the concentration at which binding is half-saturated) is 13.8 nM; the koff – broadly, the first-order rate constant of dissociation – came out at 0.00291 s⁻¹; the association rate constant (kon) – broadly, the rate constant with which the complex forms – was determined as 212000 M⁻¹ s⁻¹. Moreover, in test [4], the equilibrium dissociation constant (Kd) is less than 0.001 nM, the off-rate constant (koff) was less than 1e-07 s⁻¹ and the on-rate constant (kon) was 106000 M⁻¹ s⁻¹.

B6: anti-TIE2 antibody 1A9 (IgG) (antibody, V domains shown)
VH: QMQLVQSEAEVKKPGASVKVSCKASGYTFNSYDIHWVRQAPGQGLEWMGVVNPPGGTGSTVYAQKFEDRLTLTTDMSTSTAYMELSSLRSEDTAVYYCARDYNRAPPTLDVWGQGTTITVSS
VL: NFMLTQPASVSGSPGQSITISCTGSSSDVGGYNYVSWYQQHPGKAPQLIIYDVTKRPSGVSNRFSGSKSGNSASLTISGLQAEDEADYYCSSYSSSTFYVFGTGTKVTVLG
notes: also called 1A9 clone
For the molecule B6, the binding result in test [5] was “binds”; in test [6] it was “no binding”; in test [7] it was “binds”.

B7: anti-TIE2 antibody 11F (IgG) (antibody, V domains shown)
VH: QVQLVESGGGVVQPGRSLRLSCSASGFSFSDHAMHWVRQAPGRGLEWVATVWPDGSNKYYVDSVNGRFSISRDNSKNTVSLQMNSLRAEDTAVYYCARDSGPISRGDLTYWGPGVLVTVSS
VL: NFMLTQPHSVSESPGKTVIISCTGSGGSIASNYVQWYQQRPGSAPTIVIYEDDQRPSGVPDRYSGSTDSSSNSASLTISGLRAEDEADYYCQSYDDTNVVFGGGTKLTVLG
notes: also called 11F antibody; No. 6
In test [4], B7 had a dissociation constant Kd of 2.76 nM, an off-rate constant (koff) of 0.000152 s⁻¹ and a kon of 55300 M⁻¹ s⁻¹.

B8: anti-TIE2 antibody 3D6 (IgG) (antibody, V domains shown)
VH: QVQLVESGGGLVQPGGSLRLSCIGSGFTFSRYNINWVRQAPGKGLEWVSSISSSGRFIHYAGSVKGRFTVSRDNTKNSVSLQMNSLRAEDTAVYYCARDSPTQGPYYYYGMDVWGQGTTITVSS
VL: SYELTQPPSESVAPGKTATITCGGNKIGSKSVHWYQQKPGQAPLMVIYYDSDRPSGIPERFSGSNSGNTATLTISRVEVGDEADYYCQVWDSSSDRPVFGGGTKLTVLG
notes: also called 3D6 clone
Consider B8, for which the binding result was “binds” in test [5], “no binding” in test [6], “binds” in test [7] and “no binding” in test [8].

B9: anti-TIE2 antibody 2F2 (IgG) (antibody, V domains shown)
VH: QVQLVESGGGLVQPGGSLRLSCAASGFTFSSYAMTWVRQAPGKGLEWVSRISGSGGSTNYADSVKGRFTISRDNSKNTLYLQMNSLRAEDTAVYYCARGGLHHGFDIWGQGTMVTVSS
VL: SYELTQPPSLSVAPGKTARITCDGDNIESKSVHWYQQKPGQAPVLVIYYDNDRPSGIPERFSGSNSGNTATLTISRVEAGDEADYYCQVWDTYTDQPVFGGGTKLTVLG
notes: also called 2F2 clone
Regarding B9, the binding result in test [6] is “no binding”. Also, the binding result in test [8] was “no binding”. For the same molecule, in test [4], the Kd came out at 0.794 nM, the koff is 0.000116 s⁻¹ and the association rate constant (kon) was found to be 146000 M⁻¹ s⁻¹.
